For experiment [1], the target named is recombinant human CD38 his tagged (extracellular domain) (human) (UniProt P28907). The experiment can be described thus: Forte Bio BLI, IgG on AHQ sensors.
The target of experiment [2] is T1, recombinant human CD38 his tagged (extracellular domain) (human, UniProt P28907 43-300).
T1 construct: Bought from Sino Biological; also called rhCD38; rhCD38-his; not shown: Histidine tag
T1 sequence: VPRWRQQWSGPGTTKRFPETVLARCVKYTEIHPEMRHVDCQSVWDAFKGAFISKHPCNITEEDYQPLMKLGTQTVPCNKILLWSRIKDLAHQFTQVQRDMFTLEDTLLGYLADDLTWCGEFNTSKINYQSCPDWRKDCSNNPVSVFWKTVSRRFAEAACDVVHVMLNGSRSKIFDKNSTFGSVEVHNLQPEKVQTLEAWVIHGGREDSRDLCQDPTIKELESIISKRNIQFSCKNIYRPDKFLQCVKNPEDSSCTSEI
The experiment can be described thus: SPR, Biacore 2000, antibody captured by anti-human antibody, rhCD38-his as analyte. (In general: SPR reads the build-up and loss of mass on a sensor chip optically.)

In experiment [3] the target is T2, human CD38 expressed on human cell lines (Daudi, Ramos, Raji, Jurkat) (human, UniProt P28907 1-300).
T2 construct: Endogenous CD38 of the cell lines; also called CD38 expressed on cell lines of human origin
T2 sequence: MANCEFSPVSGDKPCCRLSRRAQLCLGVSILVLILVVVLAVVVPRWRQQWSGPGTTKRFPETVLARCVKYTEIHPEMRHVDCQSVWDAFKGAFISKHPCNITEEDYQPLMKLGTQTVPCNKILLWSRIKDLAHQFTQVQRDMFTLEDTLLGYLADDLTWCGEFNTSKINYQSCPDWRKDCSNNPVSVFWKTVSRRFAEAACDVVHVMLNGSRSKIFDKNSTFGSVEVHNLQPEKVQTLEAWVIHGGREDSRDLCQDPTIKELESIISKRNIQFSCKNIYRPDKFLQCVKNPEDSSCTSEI
The experiment can be described thus: flow cytometry on Daudi cells, secondary rabbit anti-human Fcg F(ab')2, MFI against log antibody concentration. (In general: In flow cytometry, cells or beads pass a laser one at a time.)
Description: (§1) Binding of anti-CD38 Antibodies to CD38-expressing cells: The candidate hits are evaluated by binding to lymphoblast like human cell lines, Ramos and Daudi. Binding to CD38 expressing human cell lines (Ramos and Daudi) was examined by staining test articles (anti-CD38 primary antibodies) with 20 μg/ml antibodies followed by semi-log dilution series (7-point) for 30 minutes on ice. This was followed by staining with a secondary antibody (rabbit anti-human Fcg F(ab′)2) concentration of 5 μg/ml for 30 minutes on ice. All samples were stained in triplicates. To minimize cross-linking induced cell death mediated by binding of the secondary antibody, cell lines were examined in staining cohorts of 4 test articles at a time. Live cells were gated using FSC vs SSC parameters by flow cytometry during sample acquisition. Mean fluorescence intensity (MFI) of stained cells were plotted on an XY chart, graphing MFI against the log of the concentration, and the data fit to a non-linear regression curve from which the EC50 is calculated.

Experiment [4] concerns the target T2, human CD38 expressed on human cell …. The experiment can be described thus: flow cytometry on Ramos cells, secondary rabbit anti-human Fcg F(ab')2, MFI against log antibody concentration.
Description: as §1
Experiment [5] deals with T1, recombinant human CD38 his tagged …. The experiment can be described thus: BLI (Octet / Forte Bio), IgG against monovalent human CD38-HIS (affinity). (In BLI a coated tip is dipped into the sample, and binding shifts an interference pattern.)
Experiment [6] shares this target. The experiment can be described thus: BLI (Octet), avidity format: rhCD38-his loaded on Ni-NTA sensor, antibody in solution.
Description: Avidity binding measurements of anti-CD38 Antibodies: Ni-NTA sensors were equilibrated off-line in assay buffer for 30 minutes and then monitored on-line for 60 seconds for baseline establishment. […] Then the antibody was associated at different concentrations (as described in FIGS. 8) for 50 min. Afterwards they were transferred to assay buffer for 30 minutes for off-rate measurement. Kinetics data were fit using a 1:1 binding model in the data analysis software provided by ForteBio.

This is an account of results in patent US20200362050A1 (BLACK BELT THERAPEUTICS, published 2020).

A word on the EC50 (read off the curve): it is the concentration that produces a half-maximal response. Lower therefore signals an effect from little substance.

For “IB4, reference monoclonal agonistic mouse anti-human CD38 antibody”, the Kd in experiment [1] was determined as 9 nM.

B1: aCD38-a-309 human IgG1 (aCD38-a-309-hIgG1) (antibody, V domains shown)
VH: EVQLVESGGGLVKPGGSLRLSCAASGFTFSSYSMNWVRQAPGKGLEWVSSISSSSNYIYYADSVKGRFTISRDNAKNSLYLQMNSLRAEDTAVYYCAREPIYTSGWPFDIWGQGTMVIVSS
VL: EIVLTQSPATLSLSPGERATLSCRASQSVSSYLAWYQQKPGQAPRLLIYDASNRATGIPARFSGSGSGTDFTLTISSLEPEDFAVYYCQQHVNFPWTFGGGTKVEIK
notes: They are assigned here because the control is a human IgG1 isotype; not shown: human IgG1 heavy chain constant region, P01857; human kappa light chain constant region, P01834
With B1, in experiment [2], the Kd is 0.65 nM. The “EC50 (read off the curve)” value in experiment [3] is roughly 0.2 µg/mL; in experiment [4], roughly 0.4 µg/mL.

B2: aCD38-a-309-IgG4 (antibody, V domains shown)
VH: B1 VH
VL: B1 VL
Consider B2, for which the Kd is 32.9 nM in experiment [5] and 0.134 nM in experiment [6].
